# T1: recombinant mouse IL-27 (mouse, UniProt O35228 19-228; Q8K3I6 29-234, limits assumed)
# T1 construct: also called rodent recombinant IL-27
# T1 sequence (looked up) 1: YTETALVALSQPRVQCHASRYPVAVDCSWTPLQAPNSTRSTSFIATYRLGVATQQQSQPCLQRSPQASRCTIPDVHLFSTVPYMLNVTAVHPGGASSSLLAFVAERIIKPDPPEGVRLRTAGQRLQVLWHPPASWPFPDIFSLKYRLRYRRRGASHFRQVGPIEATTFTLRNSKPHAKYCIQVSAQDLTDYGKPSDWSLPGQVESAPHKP
# T1 sequence (looked up) 2: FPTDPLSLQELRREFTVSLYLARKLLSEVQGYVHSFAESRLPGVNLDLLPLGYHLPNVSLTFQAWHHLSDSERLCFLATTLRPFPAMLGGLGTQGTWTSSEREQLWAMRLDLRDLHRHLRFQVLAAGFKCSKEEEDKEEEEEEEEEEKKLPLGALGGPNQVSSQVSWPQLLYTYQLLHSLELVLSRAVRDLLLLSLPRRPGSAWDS
# T2: recombinant human IL-27 (human, UniProt Q14213 21-229; Q8NEV9 29-243)
# T2 construct: Bought from R&D Systems (Cat. 2526-IL); also called hIL-27; rhIL-27
# T2 sequence 1: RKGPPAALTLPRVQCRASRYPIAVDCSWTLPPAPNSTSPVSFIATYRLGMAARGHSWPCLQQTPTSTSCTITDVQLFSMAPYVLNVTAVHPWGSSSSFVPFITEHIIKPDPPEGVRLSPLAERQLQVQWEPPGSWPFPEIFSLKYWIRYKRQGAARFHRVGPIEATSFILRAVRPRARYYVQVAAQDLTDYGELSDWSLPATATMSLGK
# T2 sequence 2: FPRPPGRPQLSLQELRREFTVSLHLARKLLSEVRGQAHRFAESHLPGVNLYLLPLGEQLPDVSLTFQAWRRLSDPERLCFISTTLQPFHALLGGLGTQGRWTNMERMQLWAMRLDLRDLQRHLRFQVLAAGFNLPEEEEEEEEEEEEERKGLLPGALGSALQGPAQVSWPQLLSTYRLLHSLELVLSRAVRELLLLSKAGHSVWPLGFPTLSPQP
# Key:
# recombinant mouse IL-27 = target: T1, recombinant mouse IL-27; assay: column 'Affinity mIL-27 (M)'; method not given
# recombinant human IL-27 [1] = target: T2, recombinant human IL-27; assay: column 'Affinity hIL-27 (M)', property (i); method not given, paragraph 885 names SPR (BIACORE 2000)
# recombinant human IL-27 [2] = target: T2, recombinant human IL-27; assay: SPR, hIL-27 on CM5 chip, bivalent analyte model
# Procedure: (§1) The antibodies were further characterized by surface plasmon resonance (SPR). Kinetic experiments were performed on a Biacore T200 (GE Healthcare, Uppsala, Sweden). All experiments were run at 25° C. with HBS-P+ running buffer (pH 7.4) (GE Healthcare, Little Chalfont, UK) using hIL-27 (R&D Systems, Abingdon, UK). Human IL-27 (hIL-27) antigen was captured on a CM5 chip to ˜16 RU. Immobilization was carried out at a protein concentration of 1 μg/mL in 10 mM acetate buffer pH 5.0. A three point, three-fold dilution range from 3.3 nM to 30 nM of antibody diluted in HBS-P+ buffer without regeneration between each concentration was used. The association phase for the three injections of increasing concentrations of antibody was monitored for 75 seconds each time and a single dissociation phase was measured for 250 seconds following the last injection of antibody. Regeneration of the hIL-27 surface was conducted using a single injection of 2M MgCl₂ for 120 s. Multiple repeats (n=4) of the chimeric antibody were performed throughout the assay to check the stability of the surface and analyte over the kinetic cycles.
# (§2) Both 1:1 binding and bivalent analyte models were used to analyze the data due to the bivalent nature of the antibody. The results from the 1:1 binding model analysis are summarized in Table 4 and results from the bivalent analyte model are summarized in Table 5.
# recombinant human IL-27 [3] = target: T2, recombinant human IL-27; assay: SPR, hIL-27 on CM5 chip, bivalent analyte model (ka1)
# Procedure: as §1, §2
# recombinant human IL-27 [4] = target: T2, recombinant human IL-27; assay: SPR, hIL-27 on CM5 chip, bivalent analyte model (kd1)
# Procedure: as §1, §2
# recombinant human IL-27 [5] = target: T2, recombinant human IL-27; assay: SPR (Biacore T200), hIL-27 on CM5 chip, single cycle, 1:1 model
# Procedure: as §1, §2
Binder,binding result (recombinant mouse IL-27),Kd (recombinant mouse IL-27) [nM],Kd (recombinant human IL-27 [1]) [nM],ka2 (recombinant human IL-27 [2]),kd2 (recombinant human IL-27 [2]) [s⁻¹],kon (recombinant human IL-27 [3]) [M⁻¹ s⁻¹],koff (recombinant human IL-27 [4]) [s⁻¹],Kd (recombinant human IL-27 [5]) [nM],Relative KD to Ab7.1 (recombinant human IL-27 [5]),koff (recombinant human IL-27 [5]) [s⁻¹],kon (recombinant human IL-27 [5]) [M⁻¹ s⁻¹]
"Ab7.13 (antibody, human IgG1, kappa, V domains shown, human IgG1/kappa) VH: EVKLVESGGGLVQPGGSLRLSCAASGFTFTSYSMSWVRQAPGKGLEWVAYISYDGGSAYYPDTVKGRFTISRDNSKKTLYLQMNSLRAEDTAVYYCARHGDYDDDDAMDYWGQGTLVTVSS VL: DIQMTQSPSSLSASVGDRVTITCRASENIYSYLAWYQQKPGKAPKLLVYNAETLTEGVPSRFSGSGSGTDFTLTISSLQPEDFANYYCQHHYGTPLTFGQGTKLEIKR",–,–,–,0.02 1/RUs,0.053,740000,0.0026,1.2,1.2,0.0018,1.5e+06
"Ab7.20 (antibody, human IgG1, kappa, V domains shown, human IgG1/kappa) VH: EVQLVESGGGLVQPGGSLRLSCAASGFTFTSYSMSWVRQAPGKGLEWVSYISYDGGSAYYPDTVKGRFTISRDNSKNTLYLQMNSLRAEDTAVYYCARHGDYDDDDAMDYWGQGTLVTVSS VL: DIQMTQSPSSLSASVGDRVTITCRASENIYSYLAWYQQKQGKAPKLLVYNAETLTEGVPSRFSGSGSGTDFTLTISSLQPEDFANYYCQHHYGTPLTFGQGTKLDIKR",–,–,–,0.036 1/RUs,0.086,620000,0.0025,1.4,1.4,0.0018,1.3e+06
"Ab7.21 (antibody, human IgG1, kappa, V domains shown, human IgG1/kappa) VH: EVQLVESGGGLVQPGGSLRLSCAASGFTFTSYSMSWVRQAPGKGLEWVSYISYDGGSAYYPDTVKGRFTISRDNSKNTLYLQMNSLRAEDTAVYYCARHGDYDDDDAMDYWGQGTLVTVSS VL: DIQMTQSPSSLSASVGDRVTITCRASENIYSYLAWYQQKPGKAPKLLVYNAETLTEGVPSRFSGSGSGTDFTLTISSLQPEDFANYYCQHHYGTPLTFGQGTKLEIKR",–,–,–,0.043 1/RUs,0.097,550000,0.0027,1.5,1.5,0.0019,1.2e+06
"Ab7.18 (antibody, human IgG1, kappa, V domains shown, human IgG1/kappa) VH: EVQLVESGGGLVQPGGSLRLSCAASGFTFTSYSMSWVRQAPGKGLEWVAYISYDGGSAYYPDTVKGRFTISRDNSKNTLYLQMNSLRAEDTAVYYCARHGDYDDDDAMDYWGQGTLVTVSS VL: DIQMTQSPSSLSASVGDRVTITCRASENIYSYLAWYQQKPGKAPKLLVYNAETLTEGVPSRFSGSGSGTDFTLTISSLQPEDFATYYCQHHYGTPLTFGQGTKLEIKR",–,–,–,0.053 1/RUs,0.11,570000,0.0028,1.5,1.4,0.0019,1.3e+06
"Ab7.16 (antibody, human IgG1, kappa, V domains shown, human IgG1/kappa) VH: EVQLVESGGGLVQPGGSLRLSCAASGFTFTSYSMSWVRQAPGKGLEWVAYISYDGGSAYYPDTVKGRFTISRDNSKNTLYLQMNSLRAEDTAVYYCARHGDYDDDDAMDYWGQGTLVTVSS VL: DIQMTQSPSSLSASVGDRVTITCRASENIYSYLAWYQQKQGKAPKLLVYNAETLTEGVPSRFSGSGSGTDFTLTISSLQPEDFANYYCQHHYGTPLTFGQGTKLDIKR",–,–,–,0.04 1/RUs,0.091,570000,0.0027,1.5,1.4,0.0018,1.3e+06
"Ab7.14 (antibody, human IgG1, kappa, V domains shown, human IgG1/kappa) VH: EVKLVESGGGLVQPGGSLRLSCAASGFTFTSYSMSWVRQAPGKGLEWVAYISYDGGSAYYPDTVKGRFTISRDNSKKTLYLQMNSLRAEDTAVYYCARHGDYDDDDAMDYWGQGTLVTVSS VL: DIQMTQSPSSLSASVGDRVTITCRASENIYSYLAWYQQKPGKAPKLLVYNAETLTEGVPSRFSGSGSGTDFTLTISSLQPEDFATYYCQHHYGTPLTFGQGTKLEIKR",–,–,–,0.039 1/RUs,0.099,700000,0.0026,1.2,1.2,0.0018,1.5e+06

# Further lines, results first:
binding result (recombinant mouse IL-27),Kd (recombinant mouse IL-27) [nM],Kd (recombinant human IL-27 [1]) [nM],ka2 (recombinant human IL-27 [2]),kd2 (recombinant human IL-27 [2]) [s⁻¹],kon (recombinant human IL-27 [3]) [M⁻¹ s⁻¹],koff (recombinant human IL-27 [4]) [s⁻¹],Kd (recombinant human IL-27 [5]) [nM],Relative KD to Ab7.1 (recombinant human IL-27 [5]),koff (recombinant human IL-27 [5]) [s⁻¹],kon (recombinant human IL-27 [5]) [M⁻¹ s⁻¹],Binder
no binding,–,–,–,–,–,–,–,–,–,–,"SRF416 (antibody, V domains shown, also called SRF416-A; SRF416-B) VH: QVQLQQWGAGLLKPSETLSLTCAVYGGSFSGYYWSWIRQPPGKGLEWIGEIDVDGSTNYNPSLKSRVTISVDTSKNQFSLKLSSVTAADTAVYYCARDGYYYDTSPYDVWGQGTMVTVSS VL: EIVLTQSPATLSLSPGERATLSCRASQSVSSYLAWYQQKPGQAPRLLIYDASNRATGIPARFSGSGSGTDFTLTISSLEPEDFAVYYCQQRDSFPLTFGGGTKVEIK"
no binding,–,–,–,–,–,–,–,–,–,–,"SRF557 (antibody, V domains shown, also called SRF557-A; SRF557-B) VH: QVQLVQSGAEVKKPGSSVKVSCKASGGTFSSYAISWVRQAPGQGLEWMGGIIPIFGTANYAQKFQGRVTITADESTSTAYMELSSLRSEDTAVYYCARLGGRGYADEGWYFDLWGRGTLVTVSS VL: not shown"
–,80.5,0.048,–,–,–,–,–,–,–,–,"SRF536 (antibody, V domains shown, also called SRF536-A; SRF536-B) VH: QVQLQQWGAGLLKPSETLSLTCAVYGGSFSEYYWAWIRQPPGKGLEWIGEIDEVGSTNYNPSLKSRVTISVDTSKNQFSLKLSSVTAADTAVYYCARLPMYYYDSSDLPMDVWGQGTTVTVSS VL: not shown"
–,1.33,0.0059,–,–,–,–,–,–,–,–,"SRF529 (antibody, V domains shown, also called SRF529-A; SRF529-B) VH: EVQLVESGGGLVKPGGSLRLSCAASGFTFSSYSMNWVRQAPGKGLEWVSSISSSSSYIYYADSVKGRFTISRDNAKNSLYLQMNSLRAEDTAVYYCARDGGRTSYTATAHNWFDPWGQGTLVTVSS VL: not shown"
no binding,–,1,–,–,–,–,–,–,–,–,"Ab7 (antibody, mouse hybridoma antibody (mIgG2a/kappa); also called isolated anti-EBI3 antibody Ab7; parental Ab7 antibody) heavy: EVKLVESGGGLVQPGGSLKLFCAASGFTFTSYSMSWVRQTPEKRLEWVAYISYDGGSAYYPDTVKGRFSISRDNAKKTLYLQMSSLKSEDTAMYYCARHGDYDDDDAMDYWGQGTSVTVSSAKTTAPSVYPLAPVCGDTTGSSVTLGCLVKGYFPEPVTLTWNSGSLSSGVHTFPAVLQSDLYTLSSSVTVTSSTWPSQSITCNVAHPASSTKVDKKIEPRGPTIKPCPPCKCPAPNLLGGPSVFIFPPKIKDVLMISLSPIVTCVVVDVSEDDPDVQISWFVNNVEVHTAQTQTHREDYNSTLRVVSALPIQHQDWMSGKEFKCKVNNKDLPAPIERTISKPKGSVRAPQVYVLPPPEEEMTKKQVTLTCMVTDFMPEDIYVEWTNNGKTELNYKNTEPVLDSDGSYFMYSKLRVEKKNWVERNSYSCSVVHEGLHNHHTTKSFSRTPGK light: DIQMTQSPASLSASVGETVTITCRASENIYSYLAWYQQKQGKSPQLLVYNAETLTEGVPSRFSGSGSGTQFSLKINSLQPEDFGNYYCQHHYGTPLTFGAGTKLDLKADAAPTVSIFPPSSEQLTSGGASVVCFLNNFYPKDINVKWKIDGSERQNGVLNSWTDQDSKDSTYSMSSTLTLTKDEYERHNSYTCEATHKTSTSPIVKSFNRNEC"
–,–,–,0.49 1/RUs,1.11,580000,0.0027,1.5,1.5,0.0019,1.3e+06,"Ab7.22 (antibody, human IgG1, kappa, V domains shown, human IgG1/kappa) VH: EVQLVESGGGLVQPGGSLRLSCAASGFTFTSYSMSWVRQAPGKGLEWVSYISYDGGSAYYPDTVKGRFTISRDNSKNTLYLQMNSLRAEDTAVYYCARHGDYDDDDAMDYWGQGTLVTVSS VL: DIQMTQSPSSLSASVGDRVTITCRASENIYSYLAWYQQKPGKAPKLLVYNAETLTEGVPSRFSGSGSGTDFTLTISSLQPEDFATYYCQHHYGTPLTFGQGTKLEIKR"

# Reference: patent US20190382474A1 (SURFACE ONCOLOGY, published 2019)
